Results: patent US20250326842A1 (BEIGENE SWITZERLAND, published 2025)
Positions count from the first letter of the chain named. Like-named read-outs stand apart in the source and are kept apart here. Values belong to the binder of their own block, whether it stands above or below them.

Tests used:
[1] = target: T1, Cyno PVRIG expressed on HEK293 cells (cynomolgus monkey); assay: flow cytometry on 293T cells expressing cyno PVRIG, anti-hFc-AF647 detection
T1 construct: also called native Cyno PVRIG
T1 chain: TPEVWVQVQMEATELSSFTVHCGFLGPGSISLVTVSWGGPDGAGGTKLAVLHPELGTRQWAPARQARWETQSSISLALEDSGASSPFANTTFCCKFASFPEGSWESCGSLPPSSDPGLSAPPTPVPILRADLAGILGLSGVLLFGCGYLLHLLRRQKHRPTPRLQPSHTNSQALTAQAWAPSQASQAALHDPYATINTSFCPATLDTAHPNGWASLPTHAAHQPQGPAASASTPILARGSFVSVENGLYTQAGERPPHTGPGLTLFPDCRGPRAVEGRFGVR
Protocol: (§1) To evaluate the binding activity of anti-PVRIG antibodies to native Cyno PVRIG on living cells. HEK293 cells were engineered to express Cyno PVRIG. HEK293 expressing PVRIG cells were seeded in 96 well plates and were incubated with a serial dilution of anti-PVRIG antibodies. […] EC50 values for dose dependent binding to Cyno native PVRIG were determined by fitting the dose response data to the four-parameter logistic model with GraphPad Prism™.

[2] = target: T2, human PVRIG expressed on cells (human, UniProt Q6DKI7 41-326); assay: flow cytometry on Jurkat cells expressing human PVRIG, anti-hFc-AF647 detection
T2 construct: Jurkat cells engineered to express human PVRIG; also called hPVRIG-Jurkat; native human PVRIG
T2 sequence: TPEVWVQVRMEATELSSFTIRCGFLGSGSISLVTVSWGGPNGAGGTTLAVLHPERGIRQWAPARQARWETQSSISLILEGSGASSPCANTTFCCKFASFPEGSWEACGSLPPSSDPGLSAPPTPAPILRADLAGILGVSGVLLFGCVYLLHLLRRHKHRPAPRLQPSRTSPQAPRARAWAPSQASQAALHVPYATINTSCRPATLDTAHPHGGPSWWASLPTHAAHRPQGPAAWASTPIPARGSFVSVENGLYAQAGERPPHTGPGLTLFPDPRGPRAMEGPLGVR
Protocol: To evaluate the binding activity of anti-PVRIG antibodies to native PVRIG on living cells, Jurkat cells were engineered to express human PVRIG. […] EC50 values for dose dependent binding to human native PVRIG were determined by fitting the dose response data to the four-parameter logistic model with GraphPad Prism™.

hPVRIG-ECD-his [3] = target: T3, hPVRIG-ECD-his (human, UniProt Q6DKI7 41-171); assay: blocking ELISA: hPVRIG-His coated, antibody mixed with PVRL2-biotin at 1 ug/mL; % inhibition of PVRL2 binding
T3 construct: Acrobiosystems PVG-H52H4; also called hPVRIG-His; human PVRIG-His; not shown: His tag
T3 sequence: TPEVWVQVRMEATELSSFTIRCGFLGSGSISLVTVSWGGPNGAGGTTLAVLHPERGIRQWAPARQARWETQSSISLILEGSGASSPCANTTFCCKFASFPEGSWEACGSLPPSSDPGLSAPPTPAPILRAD

[4] = target: T4, human PVRIG recombinant protein (human, UniProt Q6DKI7 41-171); assay: SPR, antibody captured via anti-human Fc, human PVRIG analyte
T4 construct: also called human PVRIG protein; recombinant human antigen PVRIG
T4 sequence: T3 sequence
Text: For affinity determination, antibodies were captured by anti-human Fc antibodies, and used in the affinity determination based on surface plasmon resonance (SPR) technology.

[5] = target: T4, human PVRIG recombinant protein; assay: ELISA, chimeric antibody on recombinant human PVRIG
hPVRIG-ECD-his [6] = target: T3, hPVRIG-ECD-his; assay: competition ELISA, antibody against PVRL2 on coated human PVRIG
[7] = target: T4, human PVRIG recombinant protein; assay: SPR, antibody captured via anti-human Fc, human PVRIG analyte; remark: listed apart in the source
Protocol: Chimeric anti-PVRIG antibodies were generated in human IgG1 format and characterized for binding kinetics by surface plasmon resonance (SPR) assays using BIAcore™ T-200 (GE Life Sciences). […] Then a serial dilution of human or Cyno PVRIG protein was flowed over the chip surface and changes in surface plasmon resonance signals were analyzed to calculate the association rates (kₒₙ) and dissociation rates (koff) by using the one-to-one Langmuir binding model (BIA Evaluation Software, GE Life Sciences). The equilibrium dissociation constant (KD) was calculated as the ratio koff/kₒₙ.

[8] = target: T2, human PVRIG expressed on cells; assay: FACS on human PVRIG-expressing cells
[9] = target: T1, Cyno PVRIG expressed on HEK293 cells; assay: flow cytometry on 293T cells expressing cyno PVRIG, anti-hFc-AF647 detection [panel A]
Protocol: as §1, with “cells transfected with Cyno” for “expressing”, “PVRIG” for “PVRIG cells”

[10] = target: T4, human PVRIG recombinant protein; assay: SPR, antibody captured via anti-human Fc, human PVRIG analyte; remark: listed apart in the source
Text: For affinity determination, anti-PVRIG antibodies were captured by anti-human Fc antibodies, and used in the affinity assay based on surface plasmon resonance (SPR) technology.

[11] = target: T2, human PVRIG expressed on cells; assay: flow cytometry on Jurkat cells expressing human PVRIG, anti-hFc-AF647 detection [panel A]
Protocol: as §1, with “native” for “native Cyno”, “cells, Jurkat” for “cells. HEK293”, “human” for “Cyno”, “Jurkat cells” for “HEK293”, “PVRIG” for “PVRIG cells”, “serially diluted” for “a serial dilution of”

hPVRIG-ECD-his [12] = target: T3, hPVRIG-ECD-his; assay: blocking ELISA: hPVRIG-His coated, antibody mixed with PVRL2-biotin at 1 ug/mL; % inhibition of PVRL2 binding [panel A]
[13] = target: T1, Cyno PVRIG expressed on HEK293 cells; assay: flow cytometry on HEK293 cells expressing cyno PVRIG, anti-hFc-647 detection [panel B]
Protocol: as §1, with “cells transfected with Cyno” for “expressing”, “PVRIG” for “PVRIG cells”

[14] = target: T2, human PVRIG expressed on cells; assay: flow cytometry on Jurkat cells expressing human PVRIG, anti-hFc-647 detection [panel B]
Protocol: as §1, with “native” for “native Cyno”, “cells, Jurkat” for “cells. HEK293”, “human” for “Cyno”, “Jurkat cells” for “HEK293”, “PVRIG” for “PVRIG cells”, “serially diluted” for “a serial dilution of”

[15] = target: T5, human PVRL2 overexpressed on Farage cells (human, UniProt Q92692 32-538); assay: flow cytometry: 300 ng/ml hPVRIG-mIgG2a on Farage-hPVRL2 cells, PE anti-mouse IgG2a [panel A]
T5 construct: also called Farage-hPVRL2 cells; surface PVRL2
T5 sequence: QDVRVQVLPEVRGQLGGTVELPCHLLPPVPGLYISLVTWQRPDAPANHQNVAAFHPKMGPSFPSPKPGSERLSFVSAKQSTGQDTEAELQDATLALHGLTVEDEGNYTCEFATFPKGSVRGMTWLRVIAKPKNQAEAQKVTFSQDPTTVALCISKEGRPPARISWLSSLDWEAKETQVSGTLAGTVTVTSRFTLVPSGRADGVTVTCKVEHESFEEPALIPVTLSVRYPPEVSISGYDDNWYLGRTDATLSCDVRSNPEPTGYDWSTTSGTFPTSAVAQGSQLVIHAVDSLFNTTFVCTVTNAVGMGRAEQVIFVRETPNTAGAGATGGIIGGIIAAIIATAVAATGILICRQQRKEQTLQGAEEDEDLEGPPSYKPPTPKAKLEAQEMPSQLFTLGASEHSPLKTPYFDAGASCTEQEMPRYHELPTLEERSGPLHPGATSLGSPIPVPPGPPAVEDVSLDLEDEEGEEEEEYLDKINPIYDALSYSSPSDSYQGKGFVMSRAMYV

- EC50 (read off the curve) [1]: ~0.04 µg/mL
- EC50 (read off the curve) [2]: ~0.02 µg/mL
- IC50 (read off the curve) (hPVRIG-ECD-his [3]): ~0.2 µg/mL
- Kd [4]: 0.645 nM
- koff [4]: 0.000954 s⁻¹
- kon [4]: 1.48e+06 M⁻¹ s⁻¹
B1: BGA861 (antibody, V domains shown)
VH: EVQLVESGGGLVKPGGSLRLSCAASGFTFSSYGISWVRQAPGKGLEWVSEISSGGTYTYYPDTVTGRFTISRDNAKNTLYLQMSSLRAEDTAVYYCARGDPFGYWGQGTLVTVSS
VL: DIQMTQSPSSLSASVGDRVTITCKASQDVMTAVAWYQQKPGKAPKLLIYSTSYRFTGVPSRFSGSGSGTDFTLTISSLQPEDFATYYCQQHYSTPRTFGGGTKVEIK
notes: Humanized BGA86

- EC50 (read off the curve) [1]: ~0.01 µg/mL
- EC50 (read off the curve) [2]: ~0.01 µg/mL
- IC50 (read off the curve) (hPVRIG-ECD-his [3]): ~0.1 µg/mL
- Kd [4]: 0.898 nM
- koff [4]: 0.00216 s⁻¹
- kon [4]: 2.41e+06 M⁻¹ s⁻¹
B2: BGA862 (antibody, V domains shown)
VH: B1 VH with I34L
VL: B1 VL
notes: Humanized BGA86

- EC50 (read off the curve) [1]: ~0.01 µg/mL
- EC50 (read off the curve) [2]: ~0.02 µg/mL
- EC50 [5]: 0.069 nM
- IC50 (hPVRIG-ECD-his [6]): 0.885 nM
- PVRIG/PVRL2 blocking Emax (% Inhibition) (hPVRIG-ECD-his [6]): 97.2%
- IC50 (read off the curve) (hPVRIG-ECD-his [3]): ~0.1 µg/mL
- Kd [4]: 0.304 nM
- koff [4]: 0.000772 s⁻¹
- kon [4]: 2.54e+06 M⁻¹ s⁻¹
- Kd [7]: 0.161 nM
- koff [7]: 0.00215 s⁻¹
- kon [7]: 1.34e+07 M⁻¹ s⁻¹
- EC50 [8]: 0.038 nM
- binding Emax (MFI) [8]: 1030 MFI
B3: BGA86 (antibody, human IgG1, V domains shown)
VH: EVQLQESGGGSVKPGGSLQLSCAASGFTFSSYGMSWIRQSPEKKLEWVAEISSGGTYTYYPDTVTGRFTISRDNAKNTLYLEMSSLRSEDTAMYYCARGDPFGYWGQGTLVTVSA
VL: DVVMTQSHKFVSTSVGGRVSITCKASQDVMTAVAWYQQKPGQSPKLLIYSTSYRFTGVPDRFTGSGSGTDFTLTINGVQAEDLAVYSCQQHYSTPRTFGGGTKLEIK
notes: also called BGA86-WT

- EC50 (read off the curve) [9]: ~0.05 µg/mL
- EC50 [5]: 0.524 nM
- IC50 (hPVRIG-ECD-his [6]): 1.5 nM
- PVRIG/PVRL2 blocking Emax (% Inhibition) (hPVRIG-ECD-his [6]): 60%
- Kd [10]: 0.045 nM
- koff [10]: 0.000175 s⁻¹
- kon [10]: 3.89e+06 M⁻¹ s⁻¹
- EC50 (read off the curve) [11]: ~0.03 µg/mL
- Kd [7]: 0.112 nM
- koff [7]: 0.00017 s⁻¹
- kon [7]: 1.52e+06 M⁻¹ s⁻¹
- IC50 (read off the curve) (hPVRIG-ECD-his [12]): ~0.6 µg/mL
- EC50 [8]: 0.059 nM
- binding Emax (MFI) [8]: 1040 MFI
B4: BGA38 (antibody, V domains shown)
VH: EVQLQESGAEHVMPGASVKMSCKAAGYTFTDYWMYWVKQRPGQGLEWIGTIDTSDHKTSYNQKFRGKATLTVDESSSTAYMQLSSLTSEDSAVYYCARDFIITVNYPVVDYWGQGTSVTVSS
VL: QNVLTQSPAIMSASPGEKVTITCSAGSSVNYMHWFQQKPGTSPKLWIYSTSNLASGVPARFSGSGSGTSYSLTISRMEAEDAATYYCQQRSSLPFTFGSGTKLEIK
notes: also called BGA38-WT

- EC50 (read off the curve) [9]: ~0.06 µg/mL
- EC50 (read off the curve) [13]: ~0.06 µg/mL
- Kd [10]: 0.0707 nM
- koff [10]: 0.000311 s⁻¹
- kon [10]: 4.4e+06 M⁻¹ s⁻¹
- EC50 (read off the curve) [14]: ~0.03 µg/mL
- EC50 (read off the curve) [11]: ~0.03 µg/mL
- IC50 (read off the curve) (hPVRIG-ECD-his [12]): ~0.4 µg/mL
B5: BGA381 (antibody, V domains shown)
VH: EVQLVQSGAEVKKPGASVKVSCKASGYTFTDYWIYWVRQAPGQGLEWMGTIDTSDHKTSYNQKFRGRVTMTRDTSTSTVYMELSSLRSEDTAVYYCARDFIITVNYPVVDYWGQGTLVTVSS
VL: QIVLTQSPATLSLSPGERATLSCSAGSSVNYMHWFQQKPGQAPRLLIYSTSNLASGVPARFSGSGSGTDYTLTISSLEPEDFAVYYCQQRSSLPFTFGQGTKLEIK
notes: Humanized BGA38; also called BGA381-WT; BGA381/IgG1 WT

- EC50 (read off the curve) [9]: ~0.03 µg/mL
- Kd [10]: 0.0646 nM
- koff [10]: 0.000211 s⁻¹
- kon [10]: 3.26e+06 M⁻¹ s⁻¹
- EC50 (read off the curve) [11]: ~0.03 µg/mL
- IC50 (read off the curve) (hPVRIG-ECD-his [12]): ~0.4 µg/mL
B6: BGA382 (antibody, V domains shown)
VH: B5 VH
VL: B5 VL with I2N, M32L
notes: Humanized BGA38

- binding result [15]: binds
B7: human PVRIG-mIgG2a (Fc fusion)
chain: T3 sequence
notes: also called hPVRIG-mIgG2a; hPVRIG; not shown: mouse IgG2a Fc
